Test results reported in patent US20050197296A1, “Agents for preventing and treating thrombocytopenia” (CHUGAI SEIYAKU KABUSHIKI KAISHA, priority 1996, published 2005).

Tests used:
platelet counts = experiment: Test for single-dose administration to mouse (platelet increasing action); type: in vivo, C57B1/6N mice; conditions: single dose 10 μg/kg through the tail vein, 6 and 9 h after the administration
Description: Nine-week old male C57B1/6N mice as purchased from Japan Charles River Co. Ltd. were used in the experiment.
Human PTH(1-84) was dissolved in a citrate buffer (pH 5; containing 0.05% of Tween 80) at final concentrations of 1, 0.2 and 0.04 ˜g/mL so as to prepare the drug solutions to be administered.
Each of the thus prepared drug solutions and a control (citrate buffer) was administered to 15 mice through the tail vein in a volume of 10 mL/kg. […] The administration was initiated at 10 a.m.
After 3, 6 and 9 hours of the administration, five mice were picked up at random from each group of animals and blood samples were withdrawn through the orbital vein. At 10 a.m. on the same day, separate blood samples were taken from untreated mice (four in number) to obtain the preadministration value. Peripheral corpuscle counts were obtained with an automatic corpuscle counter F-800 (TOA MEDICAL ELECTRONICS CO., LTD

platelet count [1] = experiment: Test for daily administration to mouse (platelet increasing action); type: in vivo, C57B1/6N mice; conditions: subcutaneous once a day
Description: Nine-week old male C57B1/6N mice as purchased from Japan Charles River Co., Ltd. were used in the experiment.
Drug solutions to be administered were prepared basically by the same procedure as in Example 1 to give drug concentrations of 5, 20 and 80 μg/mL.
The mice under test were divided into four groups, which were administered subcutaneously with the three drug solutions and a control (citrate buffer) once a day in a volume of 10 mL/kg. […] The administration was initiated at 10 a.m.
On days 5, 7 and 9 after the start of administration, five or six mice were picked up at random from each group of animals and blood samples were withdrawn through the orbital vein. The sampling of blood was timed to occur 24 h of the final administration. Separate blood samples were taken from untreated mice (five in number) to obtain the value for normal mouse. Peripheral corpuscle counts were obtained with an automatic corpuscle counter F-800(TOA MEDICAL ELECTRONICS CO., LTD.).

platelet count [2] = experiment: Effectiveness of PTH derivative, daily administration to mouse; type: in vivo, C57B1/6N mice; conditions: 200 μg/kg subcutaneous once a day for six days, blood 24 h after final administration
Description: Ten-week old male C57B1/6N mice as purchased from Japan Charles River Co., Ltd. were used in the experiment.
Drug solutions to be administered were prepared basically from human PTH(1-84) and human PTH(1-34) by the same procedure as in Example 1 to give a drug concentration of 20 μg/mL.
Eighteen mice were divided into three groups, which were administered subcutaneously with the two drug solutions and a control (citrate buffer) for six days on a once-a-day basis in a volume of 10 mL/kg. […] The administration was initiated at 10 a.m.
After 24 h of the final administration, a blood sample was withdrawn from each mouse through the orbital vein. Peripheral corpuscle counts were obtained with an automatic corpuscle counter F-800 (TOA MEDICAL ELECTRONICS CO., LTD).

platelet count [3] = experiment: Test for daily administration to rabbit (platelet increasing action); type: in vivo, Japanese albino rabbits JW/CSK; conditions: 200 μg/kg subcutaneous daily
Description: Six 12-15 week old male Japanese albino rabbits JW/CSK were used in the experiment. The animals were individually kept in aluminum rabbit bracket cages Rb-1 (350^w×500^d×350^h mm) in a vavarium in a specific pathogen-free environment under the following conditions: temperature, 24±2° C.; humidity, 50±10%; illumination, light turned on at 5:00 and turned off at 19:00; ventilation, 15 changes/hr. Each animal was supplied with 120 g of a radiation-sterilized feed for rabbits RM (purchased from Funahashi Farm) per day. The animals were also allowed to drink to tap water ad libitum from an automatic water feeder.
Human PTH(1-84) was administered in a volume of 2 mL/vial at a concentration of 200 μg/mL. A solvent was also supplied in a volume of 2 mL/vial. Both the drug and the control were stored at −135° C. until use.
PTH (200 μg/kg) was administered to the rabbits subcutaneously at the back of their neck for 13 consecutive days. The solvent was similarly administered in the same volume as the dose of a rh-PTH solution calculated from their body weight.
Blood samples (0.5 mL) were withdrawn from the rabbits through the lateral auricular vein before the administration and on days 2, 6, 9 and 13 during the administration period. […]

[4] = system: BFU-E (precursor cells of erythrocytes); conditions: literature report, J. Clin. Invest. Vol. 67, 1263-1269:1981; cited from earlier work
[5] = system: CFU-GM (precursor cells of granulocytes and macrophages); conditions: literature report, J. Clin. Invest. Vol. 67, 1263-1269:1981; cited from earlier work

B1: human PTH(1-84) (protein, UniProt P01270 32-115, looked up)
Parathyroid hormone: SVSEIQLMHNLGKHLNSMERVEWLRKKLQDVHNFVALGAPLAPRDAGSQRPRKKEDNVLVESHEKSLGEADKADVNVLTKAKSQ
modifications: Parathyroid hormone
- platelet counts versus control (platelet counts): significant increase in platelet counts over the control
- platelet count (platelet count [1]; 200 and 800 μg/kg, day 5): tendency to increase
- platelet count versus control (platelet count [1]; all treated groups (50, 200 and 800 μg/kg), day 7): significantly higher in platelet count than the control
- platelet increasing action (platelet count [2]): platelet increasing action
- platelet count relative to the initial value (platelet count [3]; day 2 until day 6): two to four times as great as the initial value
- platelet count relative to the initial level (platelet count [3]; day 13): substantially returned to the initial level

B2: parathyroid hormone (PTH): PTH as studied in the literature report by Meytes et al; form and species not printed (protein, UniProt P01270 32-115, looked up)
Parathyroid hormone: B1 Parathyroid hormone
modifications: Parathyroid hormone
- in vitro colony formation by BFU-E [4]: interfered with the in vitro colony formation
- in vitro colony formation by CFU-GM [5]: interfered with the in vitro colony formation
